Tests used:
Flag-PAB1 [1] = target: T1, Flag-PAB1 (yeast, UniProt P04147 1-577); experiment: co-IP + AUC; one-step anti-Flag bead purification from yeast crude extract (Tris pH 7.5, 0.15 M KCl, 2 mM MgCl2, 10% glycerol, 4°C), Flag peptide elution, then AU-FDS of the GFP fusion with AU-A230 or AU-A260 (20°C, 15,000 rpm); material migrating at 77S (monosomal translating complex); cycloheximide added to cells; cells on glucose (elongation), or glucose depleted 10 min and glucose added back for 1 min or 0 min (initiation)
T1 sequence (looked up): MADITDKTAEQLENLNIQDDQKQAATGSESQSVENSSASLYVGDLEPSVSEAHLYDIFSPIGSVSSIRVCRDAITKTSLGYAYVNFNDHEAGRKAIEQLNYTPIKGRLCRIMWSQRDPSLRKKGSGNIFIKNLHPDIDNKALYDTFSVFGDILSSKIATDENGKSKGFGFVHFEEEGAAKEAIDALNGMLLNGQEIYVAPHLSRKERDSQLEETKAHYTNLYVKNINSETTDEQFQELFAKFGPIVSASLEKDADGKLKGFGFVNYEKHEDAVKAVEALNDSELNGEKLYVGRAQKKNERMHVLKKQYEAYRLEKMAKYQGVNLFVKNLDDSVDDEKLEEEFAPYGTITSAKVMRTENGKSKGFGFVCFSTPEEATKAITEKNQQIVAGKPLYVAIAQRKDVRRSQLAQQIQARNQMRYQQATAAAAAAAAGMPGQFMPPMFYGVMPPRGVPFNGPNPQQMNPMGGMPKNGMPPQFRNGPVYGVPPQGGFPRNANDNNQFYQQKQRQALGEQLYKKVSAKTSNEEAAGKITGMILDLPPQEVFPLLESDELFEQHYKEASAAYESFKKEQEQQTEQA

Flag-PAB1 [2] = target: T1, Flag-PAB1; experiment: co-IP + AUC; one-step anti-Flag bead purification from yeast crude extract (Tris pH 7.5, 0.15 M KCl, 2 mM MgCl2, 10% glycerol, 4°C), Flag peptide elution, then AU-FDS of the GFP fusion with AU-A230 or AU-A260 (20°C, 15,000 rpm); material migrating at 77S (monosomal translating complex); cycloheximide added to cells; cells on glucose (elongation), or glucose depleted 10 min and glucose added back for 1 min or 0 min …; conditions: partners not purified
Flag-PAB1 [3] = target: T1, Flag-PAB1; experiment: co-IP + AUC; as a1, but material migrating from 90S to 200S (polysomal translating complexes); cells on glucose (elongation), or glucose depleted 10 min and glucose added back for 1 min (initiation); conditions: partners not purified
Flag-SBP1 (yeast) = Flag-SBP1 (yeast) (UniProt P10080); experiment: co-IP + AUC; one-step anti-Flag bead purification from yeast crude extract (Tris pH 7.5, 0.15 M KCl, 2 mM MgCl2, 10% glycerol, 4°C), Flag peptide elution, then AU-FDS of the GFP fusion with AU-A230 or AU-A260 (20°C, 15,000 rpm); material migrating at 77S (monosomal translating complex); cycloheximide added to cells; cells on glucose (elongation), or glucose depleted 10 min and glucose added back for 1 min or 0 min (initiation)
Flag-SBP1 (yeast), sequence (P10080 whole entry, the tested form may be a part): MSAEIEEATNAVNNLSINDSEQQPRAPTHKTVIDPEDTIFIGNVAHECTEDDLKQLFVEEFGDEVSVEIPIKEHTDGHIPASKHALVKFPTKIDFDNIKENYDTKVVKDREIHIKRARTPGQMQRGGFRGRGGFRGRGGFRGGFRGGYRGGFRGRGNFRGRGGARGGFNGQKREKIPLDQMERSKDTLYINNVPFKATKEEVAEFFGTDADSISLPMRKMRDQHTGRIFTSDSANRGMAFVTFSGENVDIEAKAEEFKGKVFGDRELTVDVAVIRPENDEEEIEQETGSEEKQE

eIF4E-Flag [4] = target: T2, eIF4E-Flag (yeast, UniProt P07260 1-213); experiment: co-IP + AUC; one-step anti-Flag bead purification from yeast crude extract (Tris pH 7.5, 0.15 M KCl, 2 mM MgCl2, 10% glycerol, 4°C), Flag peptide elution, then AU-FDS of the GFP fusion with AU-A230 or AU-A260 (20°C, 15,000 rpm); material migrating at 77S (monosomal translating complex); cycloheximide added to cells; cells on glucose (elongation), or glucose depleted 10 min and glucose added back for 1 min or 0 min …; conditions: partners not purified
T2 sequence (looked up): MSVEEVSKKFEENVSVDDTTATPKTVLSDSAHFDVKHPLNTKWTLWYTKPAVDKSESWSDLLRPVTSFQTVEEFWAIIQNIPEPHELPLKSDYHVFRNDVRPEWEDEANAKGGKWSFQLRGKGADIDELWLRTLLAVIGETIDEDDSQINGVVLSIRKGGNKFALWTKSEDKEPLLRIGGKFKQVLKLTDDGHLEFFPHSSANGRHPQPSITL

eIF4E-Flag [5] = target: T2, eIF4E-Flag; experiment: co-IP + AUC; as a1, but material migrating from 90S to 200S (polysomal translating complexes); cells on glucose (elongation), or glucose depleted 10 min and glucose added back for 1 min (initiation); conditions: partners not purified

## PUB1-GFP (from UniProt P32588 1-453) (natural protein)
Flag-PAB1 [1]
  relative level in the 77S monosomal translating complex, mRNA set at 100 (elongation): < 0.3 per 100 mRNA

B1: SLF1-GFP (natural protein, yeast, UniProt Q12034 1-447, looked up)
chain: MSSQNLNDNPKNTSSAAEDKKKQTSSLKLAPIPTTSPWKSSSPDSNTVIPVEELRDISKTAKPSKNGSGSIKLTSNTKWTPITPSVIISGSKDTNSKSGKNSKNSKTNKKMKKRGKYNNDINKKDFNGQTNSTSEISNVSNLESKPLDANAKVNIHSSSGATANGNIKRITNNNNSTNGRQSRNYQNRNGKTRYNNNSRHSQAANNAISFPNNYQARPEYIPNASHWLNNNSRNSYKQLSYFRQQQYYNNINYQQQLQTPYYYSMEPIFKSIESIKNQIEFYFSEENLKTDEFLRSKFKKANDGFIPMSLIGKFYRMVNLSLGGDPNLILASMREVLQHKETNHLEIALGSIEGAQKNMADDFNPLENYFIRRENWAEYAMESNFDENDDETEKYNIEKLLGPNDLDNYSYMGYPNFFPSNENGKKSQSYDQGEISRQFEQNLQIND
notes: source: yeast strain carrying the GFP fusion, in crude extract
Flag-PAB1 [2]
  relative level in the 77S monosomal translating complex, mRNA set at 100 (elongation): 2.5 per 100 mRNA
  relative level in the 77S monosomal translating complex, mRNA set at 100 (initiation): 3.5 per 100 mRNA

B2: SSD1-GFP (natural protein, yeast, UniProt P24276 1-1250, looked up)
chain: MSKNSNVNNNRSQEPNNMFVQTTGGGKNAPKQIHVAHRRSQSELTNLMIEQFTLQKQLEQVQAQQQQLMAQQQQLAQQTGQYLSGNSGSNNHFTPQPPHPHYNSNGNSPGMSAGGSRSRTHSRNNSGYYHNSYDNNNNSNNPGSNSHRKTSSQSSIYGHSRRHSLGLNEAKKAAAEEQAKRISGGEAGVTVKIDSVQADSGSNSTTEQSDFKFPPPPNAHQGHRRATSNLSPPSFKFPPNSHGDNDDEFIATSSTHRRSKTRNNEYSPGINSNWRNQSQQPQQQLSPFRHRGSNSRDYNSFNTLEPPAIFQQGHKHRASNSSVHSFSSQGNNNGGGRKSLFAPYLPQANIPELIQEGRLVAGILRVNKKNRSDAWVSTDGALDADIYICGSKDRNRALEGDLVAVELLVVDDVWESKKEKEEKKRRKDASMQHDLIPLNSSDDYHNDASVTAATSNNFLSSPSSSDSLSKDDLSVRRKRSSTINNDSDSLSSPTKSGVRRRSSLKQRPTQKKNDDVEVEGQSLLLVEEEEINDKYKPLYAGHVVAVLDRIPGQLFSGTLGLLRPSQQANSDNNKPPQSPKIAWFKPTDKKVPLIAIPTELAPKDFVENADKYSEKLFVASIKRWPITSLHPFGILVSELGDIHDPDTEIDSILRDNNFLSNEYLDQKNPQKEKPSFQPLPLTAESLEYRRNFTDTNEYNIFAISELGWVSEFALHVRNNGNGTLELGCHVVDVTSHIEEGSSVDRRARKRSSAVFMPQKLVNLLPQSFNDELSLAPGKESATLSVVYTLDSSTLRIKSTWVGESTISPSNILSLEQLDEKLSTGSPTSYLSTVQEIARSFYARRINDPEATLLPTLSLLESLDDEKVKVDLNILDRTLGFVVINEIKRKVNSTVAEKIYTKLGDLALLRRQMQPIATKMASFRKKIQNFGYNFDTNTADELIKGVLKIKDDDVRVGIEILLFKTMPRARYFIAGKVDPDQYGHYALNLPIYTHFTAPMRRYADHVVHRQLKAVIHDTPYTEDMEALKITSEYCNFKKDCAYQAQEQAIHLLLCKTINDMGNTTGQLLTMATVLQVYESSFDVFIPEFGIEKRVHGDQLPLIKAEFDGTNRVLELHWQPGVDSATFIPADEKNPKSYRNSIKNKFRSTAAEIANIELDKEAESEPLISDPLSKELSDLHLTVPNLRLPSASDNKQNALEKFISTTETRIENDNYIQEIHELQKIPILLRAEVGMALPCLTVRALNPFMKRV
notes: as for B1
Flag-PAB1 [2]
  relative level in the 77S monosomal translating complex, mRNA set at 100 (elongation): 1 per 100 mRNA
  relative level in the 77S monosomal translating complex, mRNA set at 100 (initiation): 1.8 per 100 mRNA

B3: eIF4E-GFP (natural protein, yeast, UniProt P07260 1-213, looked up)
chain: T2 sequence (looked up)
notes: the printed name puts GFP after the protein; source: yeast strain carrying the GFP fusion, in crude extract
Flag-PAB1 [2]
  relative level in the 77S monosomal translating complex, mRNA set at 100 (elongation): 16 per 100 mRNA
  relative level in the 77S monosomal translating complex, mRNA set at 100 (initiation): 23 per 100 mRNA
Flag-PAB1 [3]
  relative level in the polysomal translating complexes (90S to 200S), mRNA set at 100 (elongation): 27 per 100 mRNA
  relative level in the polysomal translating complexes (90S to 200S), mRNA set at 100 (initiation): 38 per 100 mRNA
Flag-SBP1 (yeast)
  relative level in the 77S monosomal translating complex, mRNA set at 100 (elongation): < 0.3 per 100 mRNA

B4: PAB1-GFP (natural protein, yeast, UniProt P04147 1-577, looked up)
chain: T1 sequence (looked up)
notes: as for B3
eIF4E-Flag [4]
  relative level in the 77S monosomal translating complex, mRNA set at 100 (elongation): 12 per 100 mRNA
  relative level in the 77S monosomal translating complex, mRNA set at 100 (initiation): 15 per 100 mRNA
eIF4E-Flag [5]
  relative level in the polysomal translating complexes (90S to 200S), mRNA set at 100 (elongation): 74 per 100 mRNA
  relative level in the polysomal translating complexes (90S to 200S), mRNA set at 100 (initiation): 59 per 100 mRNA
Flag-SBP1 (yeast)
  relative level in the 77S monosomal translating complex, mRNA set at 100 (elongation): < 0.3 per 100 mRNA

Reference: publication PMC4783044, “Stoichiometry and Change of the mRNA Closed-Loop Factors as Translating Ribosomes Transit from Initiation to Elongation” (PLoS ONE, 2016)
